Source: patent US6022955A, “Fatty acid -- pulmonary surfactant conjugates” (Abbott Laboratories, priority 1991, dated 2000)
Ends that are not written are not given here.

Legend:
Assay type in all cases: physicochemical
[1] = Modified Wilhelmy surface balance (Langmuir trough): dynamic surface tension vs compressed surface area; details: 37° C.; for Equilibrum (equilibrium adsorption value): after a three (3) minute spreading time, total peptide 0.5 mg/ml; for Wilhelmy-Langmuir Trough Max (maximum dynamic surface tension) / Wilhelmy-Langmuir Trough Min (minimum dynamic surface tension): peptide/lipid admixture, total peptide 0.5 mg/ml (2%; two peptides 0.25 mg/ml each), 675 μg phospholipid, seven compression-expansion cycles, average of 3 runs
Text: The dynamic surface tension lowering properties of the peptide/lipid admixtures were studied using a modified Wilhelmy Surface Balance (Langmuir Trough). The instrument consists of an all Teflon trough and movable Teflon ribbon (dam) barrier system which completely contains and defines a variable surface area. Surface area was varied through the use of a constant rate reversible 3-phase motor to drive the Teflon barrier. A Cahn 2000 electrobalance (Cahn Instruments, Cerittos, Calif.) with a sandblasted 1 cm platinum plate and stainless steel hangdown wire was employed to determine the surface tension at the liquid-air interface. The entire apparatus was situated in a thermostated incubator set at 45° C. Surface area-surface tension measurements were made by adding 950 ml of 0.15 M NaCl to the trough. Subphase temperature was controlled during the measurements at 36-38° C.
For each experiment 27 ul of peptide/lipid admixture was applied in a random array of 13 (.congruent.2 ul) droplets to the surface of the temperature controlled subphase and allowed to spread spontaneously for 3 minutes. (The 27 ul application corresponds to 675 ug of phospholipid). The trough surface area was then cycled from a maximum (445 sq. cm) to a minimum (178 sq. cm) surface area and back to maximum at a cycling rate of 3 cycles/min (compression ratio 2.5:1). The dynamic surface tension vs surface area was recorded for 7 complete compression-expansion cycles for each application.

[2] = Pulsating bubble surfactometer (PBS); details: after 100 cycles (5 minutes, 20 cycles/minute); phospholipid 1 mg/ml; 37° C.; […] NaCl; mean of triplicate
Procedure: The PBS equipment (Electronetics, Buffalo, N.Y.) used was essentially equivalent to that described in detail by G. Enhorning, J. Appid. Physiol. 43, 198-203, (1977). Recordings were made of the pressure gradient across the wall of a small air bubble, communicating with ambient air by means of a narrow chimney stack, but otherwise entirely surrounded by a 40 ul volume of the peptide/lipid admixture. The admixture concentration employed for these studies was 1 mg/ml total phospholipid (0.02 mg/ml total peptide) and the diluent was 0.15 M NaCl. Immediately prior to loading the sample chamber, the diluted samples were sonicated for 15 seconds to remove any gas nuclei.
The pressure drop across the air-water interface was measured during pulsation by a pressure transducer, and the corresponding surface tension determined through the application of Young's law and the Laplace equation. Measurements were all made at 37° C. and the bubble pulsed at 20 cycles/minute to render respectively a maximum (1.1. mm) and a minimum (0.8 mm) bubble diameter. (This compression/expansion corresponds to a 50% change in the surface area of the air-water interface).

[3] = Adsorption rate, King-Clements system (Wilhelmy balance, stirred Teflon dish); details: 10 ml of diluted sample (1:50) added under constant agitation to 70 ml saline subphase; 37° C.; total peptide 0.5 mg/ml
Procedure: A procedure similar to that described by Notter, et al., Pediatric Res. 16, 515-519, (1982) was employed to determine the absorption rate in the absence of diffusion resistance. The modified Wilhelmy surface balance as described above was used. However, instead of using a Langmuir trough a round Teflon dish (5.1 cm diameter) was employed. The subphase, 70 ml of 0.15 M NaCl, was allowed to equilibrate to 37° C. in the incubator and was continuously stirred with a Teflon coated magnetic stirer. An aliquot of the peptide/lipid admixture containing 5 mg of total phospholipid was dispersed in 10 ml of 0.15 M NaCl by vortexing for 10 seconds. This dispersion was then added to the saline subphase. Surface tension lowering was monitored using a strip chart recorder connected to the electrobalance output and data collected for 20 minutes.

| Molecule | Equilibrum (equilibrium adsorption value) [1] | Wilhelmy-Langmuir Trough Max (maximum dynamic surface tension) [1] | Wilhelmy-Langmuir Trough Min (minimum dynamic surface tension) [1] | Surface Tension Values Maximum (pulsating bubble apparatus) [2] | Surface Tension Values Minimum (pulsating bubble apparatus) [2] | King-Clements Adsorption (surface tension) [3] |
| --- | --- | --- | --- | --- | --- | --- |
| SPB (53-78): synthetic C-terminal SP-B fragment (YSVILLDTLLGRMLPQLVCRLVLRCS; ends and bridges not checked; cysteine pairing not given here; UniProt P07988 253-278, looked up, fragment) | 40.0 dynes/cm | 49.3 dynes/cm | 0.1 dynes/cm | 55.5 dynes/cm | 4.9 dynes/cm | 45.0 dynes/cm |
| SPB (1-78): synthetic full length SP-B peptide, sequence based on natural SP-B (peptide, UniProt P07988 201-279, looked up, Pulmonary surfactant-associated protein B) Pulmonary …: FPIPLPYCWLCRALIKRIQAMIPKGALAVAVAQVCRVVPLVAGGICQCLAERYSVILLDTLLGRMLPQLVCRLVLRCSM | 38.0 dynes/cm | 45.0 dynes/cm | 0.0 dynes/cm | 49.0 dynes/cm | 4.2 dynes/cm | 30.0 dynes/cm |
